Patent US20110014669A1, “Production of 1,4 Butanediol in a Microorganism” (Microbia, Inc., priority 2009, published 2011)

B1: HomCg: Enzyme candidate for BDO biosynthetic pathway step A3, SEQ ID NO. 22 (protein, listed as Corynebacterium glutamicum)
chain: MTSASAPSFNPGKGPGSAVGIALLGFGTVGTEVMRLMTEYGDELAHRIGGPLEVRGIAVSDISKPREGVAPELLTEDAFALIEREDVDIVVEVIGGIEYPREVVLAALKAGKSVVTANKALVAAHSAELADAAEAANVDLYFEAAVAGAIPVVGPLRRSLAGDQIQSVMGIVNGTTNFILDAMDSTGADYADSLAEATRLGYAEADPTADVEGHDAASKAAILASIAFHTRVTADDVYCEGISNISAADIEAAQQAGHTIKLLAICEKFTNKEGKSAISARVHPTLLPVSHPLASVNKSFNAIFVEAEAAGRLMFYGNGAGGAPTASAVLGDVVGAARNKVHGGRAPGESTYANLPIADFGETTTRYHLDMDVEDRVGVLAELASLFSEQGISLRTIRQEERDDDARLIVVTHSALESDLSRTVELLKAKPVVKAINSVIRLERD
B2: HomAu: Enzyme candidate for BDO biosynthetic pathway step A3, SEQ ID NO. 24 (protein, listed as Arthrobacter aurescens)
chain: MSEMRTLKVALLGCGNVGAQVARILIDDAEALAARSGARLELSGIAVRNVDSPRDVELPRELFTTDADTLVKDADLVIELMGGIEPARSLILTAIQNGACVVTGNKALLAQDGPTLYEEADKAGVQLSYEAAVAGAIPILRPIRDSLSGDRITRVLGIVNGTTNFILDQMDSTGAQFADALAEAQRLGYAEADPTADVEGHDAAAKAAILASLSFHTRFSLDDVYCEGITKVSAADIASAKEAGFVIKLLAIAEKIDSSDNGSGISVRVHPTLLPREHPLAAVRGAFNAVFIEAENAGELMFYGQGAGGTPTASAVLGDLVSAARRLVLGGPGRTETTTGHVPALAIDASNTSYYIGLDVADQAGVLARIAHIFAENGVSIEIMRQTIHRDSASNVESAELKIVTHRASEAALAATVEAVKGLDVINSVTSVLRVEGV
B3: ARO10Sc: Enzyme candidate for BDO biosynthetic pathway step A5, SEQ ID NO. 70 (protein, listed as Saccharomyces cerevisiae)
chain: MAPVTIEKFVNQEERHLVSNRSATIPFGEYIFKRLLSIDTKSVFGVPGDFNLSLLEYLYSPSVESAGLRWVGTCNELNAAYAADGYSRYSNKIGCLITTYGVGELSALNGIAGSFAENVKVLHIVGVAKSIDSRSSNFSDRNLHHLVPQLHDSNFKGPNHKVYHDMVKDRVACSVAYLEDIETACDQVDNVIRDIYKYSKPGYIFVPADFADMSVTCDNLVNVPRISQQDCIVYPSENQLSDIINKITSWIYSSKTPAILGDVLTDRYGVSNFLNKLICKTGIWNFSTVMGKSVIDESNPTYMGQYNGKEGLKQVYEHFELCDLVLHFGVDINEINNGHYTFTYKPNAKIIQFHPNYIRLVDTRQGNEQMFKGINFAPILKELYKRIDVSKLSLQYDSNVTQYTNETMRLEDPTNGQSSIITQVHLQKTMPKFLNPGDVVVCETGSFQFSVRDFAFPSQLKYISQGFFLSIGMALPAALGVGIAMQDHSNAHINGGNVKEDYKPRLILFEGDGAAQMTIQELSTILKCNIPLEVIIWNNNGYTIERAIMGPTRSYNDVMSWKWTKLFEAFGDFDGKYTNSTLIQCPSKLALKLEELKNSNKRSGIELLEVKLGELDFPEQLKCMVEAAALKRNKK
B4: LysAEc: Enzyme candidate for BDO biosynthetic pathway step A5, SEQ ID NO. 66 (protein, listed as Escherichia coli)
chain: MPHSLFSTDTDLTAENLLRLPAEFGCPVWVYDAQIIRRQIAALKQFDVVRFAQKACSNIHILRLMREQGVKVDSVSLGEIERALAAGYNPQTHPDDIVFTADVIDQATLERVSELQIPVNAGSVDMLDQLGQVSPGHRVWLRVNPGFGHGHSQKTNTGGENSKHGIWYTDLPAALDVIQRHHLQLVGIHMHIGSGVDYAHLEQVCGAMVRQVIEFGQDLQAISAGGGLSVPYQQGEEAVDTEHYYGLWNAAREQIARHLGHPVKLEIEPGRFLVAQSGVLITQVRSVKQMGSRHFVLVDAGFNDLMRPAMYGSYHHISALAADGRSLEHAPTVETVVAGPLCESGDVFTQQEGGNVETRALPEVKAGDYLVLHDTGAYGASMSSNYNSRPLLPEVLFDNGQARLIRRRQTIEELLALELL
B5: UlaDEc: Enzyme candidate for BDO biosynthetic pathway step A5, SEQ ID NO. 68 (protein, listed as Escherichia coli)
chain: MSLPMLQVALDNQTMDSAYETTRLIAEEVDIIEVGTILCVGEGVRAVRDLKALYPHKIVLADAKIADAGKILSRMCFEANADWVTVICCADINTAKGALDVAKEFNGDVQIELTGYWTWEQAQQWRDAGIGQVVYHRSRDAQAAGVAWGEADITAIKRLSDMGFKVTVTGGLALEDLPLFKGIPIHVFIAGRSIRDAASPVEAARQFKRSIAELWG
B6: KgdMs: Enzyme candidate for BDO biosynthetic pathway step A5, SEQ ID NO. 69 (protein, listed as Mycobacterium smegmatis)
chain: MSSSPSPFGQNEWLVEEMYRKFRDDPSSVDPSWHEFLVDYSPEPTTDSASNGRTTTAAPVTPPTPAPAPAPEPKAAPKPAAKTEAKPAKPAKSATPAKGDESQILRGAAAAVVKNMNASLEVPTATSVRAIPAKLMIDNRVVINNHLKRTRGGKISFTHLLGYAIVQAVKKFPNMNRHFAVVDGKPTAITPAHTNLGLAIDLQGKDGNRSLVVAAIKRCETMRFGQFIAAYEDIVRRARDGKLTAEDFSGVTISLTNPGTLGTVHSVPRLMQGQGAIIGAGAMEYPAEFQGASEERIADLGIGKLITLTSTYDHRIIQGAESGDFLRTIHQLLLDDDFFDEIFRELGIPYEPVRWRTDNPDSIEDKNARVIELIAAYRNRGHLMADIDPLRLDNTRFRSHPDLDVNSHGLTLWDLDREFKVDGFAGVQRKKLRDILSVLRDAYCRHVGVEYTHILEPEQQRWIQERVETKHDKPTVAEQKYILSKLNAAEAFETFLQTKYVGQKRFSLEGAETVIPMMDAVIDQCAEHGLDEVVIAMPHRGRLNVLANIVGKPYSQIFSEFEGNLNPSQAHGSGDVKYHLGATGTYIQMFGDNDIEVSLTANPSHLEAVDPVLEGLVRAKQDLLDTGEEGSDNRFSVVPLMLHGDAAFAGQGVVAETLNLALLRGYRTGGTIHIVVNNQIGFTTAPTDSRSSEYCTDVAKMIGAPIFHVNGDDPEACAWVARLAVDFRQAFKKDVVIDMLCYRRRGHNEGDDPSMTQPYMYDVIDTKRGSRKAYTEALIGRGDISMKEAEDALRDYQGQLERVFNEVRELEKHEIEPSESVEADQQIPSKLATAVDKAMLQRIGDAHLALPEGFTVHPRVRPVLEKRREMAYEGRIDWAFAELLALGSLIAEGKLVRLSGQDTQRGTFTQRHAVIVDRKTGEEFTPLQLLATNPDGTPTGGKFLVYNSALSEFAAVGFEYGYSVGNPDAMVLWEAQFGDFVNGAQSIIDEFISSGEAKWGQLSDVVLLLPHGHEGQGPDHTSGRIERFLQLWAEGSMTIAMPSTPANYFHLLRRHGKDGIQRPLIVFTPKSMLRNKAAVSDIRDFTESKFRSVLEEPMYTDGEGDRNKVTRLLLTSGKIYYELAARKAKENREDVAIVRIEQLAPLPRRRLAETLDRYPNVKEKFWVQEEPANQGAWPSFGLTLPEILPDHFTGLKRISRRAMSAPSSGSSKVHAVEQQEILDTAFG
B7: YiaQEc: Enzyme candidate for BDO biosynthetic pathway step A5, SEQ ID NO. 67 (protein, listed as Escherichia coli)
chain: MSRPLLQLALDHSSLEAAQRDVTLLKDSVDIVEAGTILCLNEGLGAVKALREQCPDKIIVADWKVADAGETLAQQAFGAGANWMTIICAAPLATVEKGHAMAQRCGGEIQIELFGNWTLDDARDWHRIGVRQAIYHRGRDAQASGQQWGEADLARMKALSDIGLELSITGGITPADLPLFKDIRVKAFIAGRALAGAANPAQVAGDFHAQIDAIWGGARA

What follows are molecules tested on L-glutamate 5-semialdehyde (GSA) (assay: Enzyme assay, oxidoreductase (step A3), cell lysates). Conditions: BDO biosynthetic pathway step A3.
Format: biochemical
Set-up: key: +: measureable activity detected in the assay; −: no measurable activity detected in the assay
Experimental: (§1) Enzyme expression and crude lysate preparation. The enzymatic activity of each candidate enzyme is evaluated, first in E. coli and subsequently in C. glutamicum. It will be apparent to one of skill in the art that the expression and lysate preparations may need to be modified depending on the host cell and recombinant gene of interest.
(§2) E. coli: E. coli strains transformed with expression clones, for example, pUC18 or MB4124 based clones having a medium strong constitutive promoter regulating the recombinant gene of interest, are grown aerobically in LB medium (Difco) containing the appropriate antibiotic(s). At an OD600 of 0.5, IPTG is added to a final concentration of 0.25 mM. The cultures are grown to a final OD600 of 1.5 at which time the cells are collected and harvested by centrifugation. Cell pellets are resuspended in BugBuster (Novagen) reagent containing benzonase and lysozyme. Alternatively, E. coli strains transformed with expression clones, are grown overnight aerobically at 37° C. in BHI containing the appropriate antibiotic(s). 300 μL of fresh overnight culture is used to inoculate 2.7 mL BHI containing 0.25 mM IPTG and the appropriate antibiotic. The cultures are grown aerobically for 4-5 hours at 37° C. at which time the cells are collected and harvested by centrifugation. Cell pellets are frozen at −80° C. for at least 15 minutes, then thawed and resuspended in BugBuster (Novagen) reagent. Lysis and lysate collection are performed according to the manufacturer's instructions and, for example, may involve use of a sonicator and/or French press. Cleared lysates are stored on ice until enzyme assays are performed.
C. glutamicum: C. glutamicum strains transformed with MB4124 expression clones containing the recombinant gene of interest are grown aerobically in BHI broth supplemented with the proper antibiotic(s). At an OD600 of 0.5, IPTG is added to a final concentration of 0.25 mM. The cultures are grown to a final OD600 of 1.5 at which time the cells are collected and harvested by centrifugation. The pellet is washed once in one volume of water and resuspended in lysis buffer (1.0 ml 1.0 M HEPES buffer, pH 7.5, 0.5 ml 1M KOH, 10 μl 0.5M EDTA, protease inhibitor cocktail, water to 5 ml; the final pH will vary depending on the individual enzyme being tested) and one volume of 0.1 mm acid washed glass beads. The mixture is repeatedly alternately vortexed and held on ice for 15 seconds, eight times. After centrifugation for 5 min at 4,000 rpm, the supernatant lysate is removed and respun for 20 min at 10,000 rpm. Alternatively, C. glutamicum strains transformed with MB4124 expression clones containing the recombinant gene of interest are grown aerobically overnight in BHI broth supplemented with the proper antibiotic(s). Five mL of fresh overnight culture is used to inoculate 200 mL BHI containing 0.25 mM IPTG and the appropriate antibiotic. The cultures are grown aerobically at 30° C. for 5-7 hours at which time the cells are collected and harvested by centrifugation at 4° C. The pellet is resuspended in 15 mL ice cold 39 mM KH2PO4, 61 mM K2HPO4, 0.5 M KCl and lysed using a BioSpec BeadBeater and following the manufacturer's instructions. […]
Protein Assays. Protein concentrations in lysates are determined according to the methods of Bradford et al. (Anal. Biochem. 72:248-254 [1976]) or by the method of Smith et al. (Anal. Biochem. 150(1):76-85 [1985]) and lysates are assayed according to the methods below. […]

Molecule | Enzyme Assay
B1 | −
B2 | −

These molecules were tested on 5-hydroxy-2-oxopentanoate (assay: Enzyme assay, decarboxylase (step A5), aldehyde dehydrogenase linked reaction). Conditions: BDO biosynthetic pathway step A5.
Format: biochemical
Set-up: key: +: measureable activity detected in the assay; −: no measurable activity detected in the assay
Experimental: as §1, §2
C. glutamicum: C. glutamicum strains transformed with MB4124 expression clones containing the recombinant gene of interest are grown aerobically in BHI broth supplemented with the proper antibiotic(s). At an OD600 of 0.5, IPTG is added to a final concentration of 0.25 mM. The cultures are grown to a final OD600 of 1.5 at which time the cells are collected and harvested by centrifugation. The pellet is washed once in one volume of water and resuspended in lysis buffer (1.0 ml 1.0 M HEPES buffer, pH 7.5, 0.5 ml 1M KOH, 10 μl 0.5M EDTA, protease inhibitor cocktail, water to 5 ml; the final pH will vary depending on the individual enzyme being tested) and one volume of 0.1 mm acid washed glass beads. The mixture is repeatedly alternately vortexed and held on ice for 15 seconds, eight times. After centrifugation for 5 min at 4,000 rpm, the supernatant lysate is removed and respun for 20 min at 10,000 rpm. Alternatively, C. glutamicum strains transformed with MB4124 expression clones containing the recombinant gene of interest are grown aerobically overnight in BHI broth supplemented with the proper antibiotic(s). Five mL of fresh overnight culture is used to inoculate 200 mL BHI containing 0.25 mM IPTG and the appropriate antibiotic. The cultures are grown aerobically at 30° C. for 5-7 hours at which time the cells are collected and harvested by centrifugation at 4° C. The pellet is resuspended in 15 mL ice cold 39 mM KH2PO4, 61 mM K2HPO4, 0.5 M KCl and lysed using a BioSpec BeadBeater and following the manufacturer's instructions. The lysate is centrifuged at 16,000 RPM at 4° C. for 30 minutes and the supernatant retained on ice as the extract.
Protein Assays. Protein concentrations in lysates are determined according to the methods of Bradford et al. (Anal. Biochem. 72:248-254 [1976]) or by the method of Smith et al. (Anal. Biochem. 150(1):76-85 [1985]) and lysates are assayed according to the methods below.
Enzyme Assays. Enzyme assays are performed on the cell lysates prepared above. The activity for each recombinant enzyme is compared to a lysate from a vector only control culture which is generated in a fashion identical to the recombinant enzyme lysate. […]

Molecule | Enzyme Assay
B3 | −
B4 | −
B5 | −
B6 | −
B7 | −
